Test results: patent US20230309566A1
Ends that are not written are not given here.

Molecular target: Sf9 cells expressing receptor A or receptor B
Test: cell-based or functional assay

| Binder | EC50 of calcium fluorescence (FLIPR Calcium 6) in Sf9 cells expressing receptor A or receptor B [nM] |
| --- | --- |
| QPPVPRY-NH2 [QPPVPRY-NH2 (SEQ ID NO: 4)] | 12.7 |
| QPPLPRY-NH2 [QPPLPRY-NH2 (SEQ ID NO: 3)] | 1.4 |
